Data reported in the supplement of paper PMC5998384.

What was measured:
HeLa Kyoto [1] = assay: solubility in G1/S (NP-40 vs SDS abundance) (log2 ratio); higher = more soluble; conditions: cell cycle stage: G1/S
HeLa Kyoto [2] = assay: solubility change mitosis vs G1/S (difference of NP-40 vs SDS log2 ratios) (log2 ratio difference); higher = more soluble in mitosis
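For solubility change mitosis vs G1/S (difference of NP-40 vs SDS log2 ratios) in this document: synchronized HeLa Kyoto cells (double thymidine block for G1/S, nocodazole release for mitosis), protein amounts in NP-40 versus SDS lysates quantified by mass spectrometry, three biological replicates.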
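For solubility in G1/S (NP-40 vs SDS abundance) in this document: HeLa Kyoto cells arrested at G1/S by double thymidine block, proteins quantified by TMT10plex mass spectrometry in mild NP-40 versus SDS extracts, three biological replicates.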

Chain of JAG2 (chain, as listed by the source): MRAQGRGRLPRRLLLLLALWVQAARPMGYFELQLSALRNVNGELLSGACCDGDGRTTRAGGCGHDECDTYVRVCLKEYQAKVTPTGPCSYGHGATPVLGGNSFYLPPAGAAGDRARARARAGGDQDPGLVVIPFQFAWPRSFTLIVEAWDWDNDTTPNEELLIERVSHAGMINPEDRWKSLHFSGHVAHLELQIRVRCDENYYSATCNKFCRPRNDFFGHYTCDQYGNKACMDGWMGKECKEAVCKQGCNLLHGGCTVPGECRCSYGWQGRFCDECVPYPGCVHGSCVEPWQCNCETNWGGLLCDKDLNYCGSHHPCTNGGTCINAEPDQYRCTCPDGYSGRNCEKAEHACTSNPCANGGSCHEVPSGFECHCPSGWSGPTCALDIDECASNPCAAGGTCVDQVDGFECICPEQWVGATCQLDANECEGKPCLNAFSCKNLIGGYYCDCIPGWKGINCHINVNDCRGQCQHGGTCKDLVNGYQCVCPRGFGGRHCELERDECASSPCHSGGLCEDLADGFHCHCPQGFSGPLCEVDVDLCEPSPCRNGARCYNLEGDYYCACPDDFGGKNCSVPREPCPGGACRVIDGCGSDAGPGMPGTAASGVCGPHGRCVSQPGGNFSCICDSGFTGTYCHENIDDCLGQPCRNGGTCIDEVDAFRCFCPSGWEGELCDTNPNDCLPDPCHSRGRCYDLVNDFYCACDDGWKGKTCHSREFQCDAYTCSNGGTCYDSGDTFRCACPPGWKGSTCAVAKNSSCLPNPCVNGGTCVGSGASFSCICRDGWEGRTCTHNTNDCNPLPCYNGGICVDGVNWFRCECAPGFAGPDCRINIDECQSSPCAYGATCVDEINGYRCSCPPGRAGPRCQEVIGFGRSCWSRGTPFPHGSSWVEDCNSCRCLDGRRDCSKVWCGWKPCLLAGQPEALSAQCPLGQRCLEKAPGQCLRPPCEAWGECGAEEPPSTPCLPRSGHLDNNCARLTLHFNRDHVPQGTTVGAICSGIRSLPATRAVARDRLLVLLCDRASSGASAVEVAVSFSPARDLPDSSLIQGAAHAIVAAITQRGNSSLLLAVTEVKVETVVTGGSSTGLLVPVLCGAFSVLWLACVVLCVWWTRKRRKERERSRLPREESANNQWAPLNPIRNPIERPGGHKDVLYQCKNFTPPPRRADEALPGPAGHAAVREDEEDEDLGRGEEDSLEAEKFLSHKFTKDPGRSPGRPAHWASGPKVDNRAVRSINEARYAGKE

Substance | solubility in G1/S (log2) (HeLa Kyoto [1]) | solubility change mitosis (log2) (HeLa Kyoto [2])
MTALSARMLTRSRSLGPGAGPRGCREEPGPLRRREAAAEARKSHSPVKRPRKAQRLRVAYEGSDSEKGEGAEPLKVPVWEPQDWQQQLVNIRAMRNKKDAPVDHLGTEHCYDSSAPPKVRRYQVLLSLMLSSQTKDQVTAGAMQRLRARGLTVDSILQTDDATLGKLIYPVGFWRSKVKYIKQTSAILQQHYGGDIPASVAELVALPGVGPKMAHLAMAVAWGTVSGIAVDTHVHRIANRLRWTKKATKSPEETRAALEEWLPRELWHEINGLLVGFGQQTCLPVHPRCHACLNQALCPAAQGL [NTHL1] | 0.0579 | 0.29
MWSLTASEGESTTAHFFLGAGDEGLGTRGIGMRPEESDSELLEDEEDEVPPEPQIIVGICAMTKKSKSKPMTQILERLCRFDYLTVVILGEDVILNEPVENWPSCHCLISFHSKGFPLDKAVAYSKLRNPFLINDLAMQYYIQDRREVYRILQEEGIDLPRYAVLNRDPARPEECNLIEGEDQVEVNGAVFPKPFVEKPVSAEDHNVYIYYPSSAGGGSQRLFRKIGSRSSVYSPESSVRKTGSYIYEEFMPTDGTDVKVYTVGPDYAHAEARKSPALDGKVERDSEGKEIRYPVMLTAMEKLVARKVCVAFKQTVCGFDLLRANGHSFVCDVNGFSFVKNSMKYYDDCAKILGNTIMRELAPQFQIPWSIPTEAEDIPIVPTTSGTMMELRCVIAIIRHGDRTPKQKMKMEVKHPRFFALFEKHGGYKTGKLKLKRPEQLQEVLDITRLLLAELEKEPGGEIEEKTGKLEQLKSVLEMYGHFSGINRKVQLTYYPHGVKASNEGQDPQRETLAPSLLLVLKWGGELTPAGRVQAEELGRAFRCMYPGGQGDYAGFPGCGLLRLHSTFRHDLKIYASDEGRVQMTAAAFAKGLLALEGELTPILVQMVKSANMNGLLDSDGDSLSSCQHRVKARLHHILQQDAPFGPEDYDQLAPTRSTSLLNSMTIIQNPVKVCDQVFALIENLTHQIRERMQDPRSVDLQLYHSETLELMLQRWSKLERDFRQKSGRYDISKIPDIYDCVKYDVQHNGSLGLQGTAELLRLSKALADVVIPQEYGISREEKLEIAVGFCLPLLRKILLDLQRTHEDESVNKLHPLCYLRYSRGVLSPGRHVRTRLYFTSESHVHSLLSVFRYGGLLDETQDAQWQRALDYLSAISELNYMTQIVIMLYEDNTQDPLSEERFHVELHFSPGVKGVEEEGSAPAGCGFRPASSENEEMKTNQGSMENLCPGKASDEPDRALQTSPQPPEGPGLPRRSPLIRNRKAGSMEVLSETSSSRPGGYRLFSSSRPPTEMKQSGLGSQCTGLFSTTVLGGSSSAPNLQDYARSHGKKLPPASLKHRDELLFVPAVKRFSVSFAKHPTNGFEGCSMVPTIYPLETLHNALSLRQVSEFLSRVCQRHTDAQAQASAALFDSMHSSQASDNPFSPPRTLHSPPLQLQQRSEKPPWYSSGPSSTVSSAGPSSPTTVDGNSQFGFSDQPSLNSHVAEEHQGLGLLQETPGSGAQELSIEGEQELFEPNQSPQVPPMETSQPYEEVSQPCQEVPDISQPCQDISEALSQPCQKVPDISQQCQENHDNGNHTCQEVPHISQPCQKSSQLCQKVSEEVCQLCLENSEEVSQPCQGVSVEVGKLVHKFHVGVGSLVQETLVEVGSPAEEIPEEVIQPYQEFSVEVGRLAQETSAINLLSQGIPEIDKPSQEFPEEIDLQAQEVPEEIN [PPIP5K1] | -0.000791 | -0.212
JAG2 | -0.54 | 0.351
MNQPQRMAPVGTDKELSDLLDFSMMFPLPVTNGKGRPASLAGAQFGGSGLEDRPSSGSWGSGDQSSSSFDPSRTFSEGTHFTESHSSLSSSTFLGPGLGGKSGERGAYASFGRDAGVGGLTQAGFLSGELALNSPGPLSPSGMKGTSQYYPSYSGSSRRRAADGSLDTQPKKVRKVPPGLPSSVYPPSSGEDYGRDATAYPSAKTPSSTYPAPFYVADGSLHPSAELWSPPGQAGFGPMLGGGSSPLPLPPGSGPVGSSGSSSTFGGLHQHERMGYQLHGAEVNGGLPSASSFSSAPGATYGGVSSHTPPVSGADSLLGSRGTTAGSSGDALGKALASIYSPDHSSNNFSSSPSTPVGSPQGLAGTSQWPRAGAPGALSPSYDGGLHGLQSKIEDHLDEAIHVLRSHAVGTAGDMHTLLPGHGALASGFTGPMSLGGRHAGLVGGSHPEDGLAGSTSLMHNHAALPSQPGTLPDLSRPPDSYSGLGRAGATAAASEIKREEKEDEENTSAADHSEEEKKELKAPRARTSPDEDEDDLLPPEQKAEREKERRVANNARERLRVRDINEAFKELGRMCQLHLNSEKPQTKLLILHQAVSVILNLEQQVRERNLNPKAACLKRREEEKVSGVVGDPQMVLSAPHPGLSEAHNPAGHM [TCF3] | 0.291 | -0.0342
MAAPSLLNWRRVSSFTGPVPRARHGHRAVAIRELMIIFGGGNEGIADELHVYNTATNQWFLPAVRGDIPPGCAAHGFVCDGTRILVFGGMVEYGRYSNELYELQASRWLWKKVKPHPPPSGLPPCPRLGHSFSLYGNKCYLFGGLANESEDSNNNVPRYLNDFYELELQHGSGVVGWSIPVTKGVVPSPRESHTAVIYCKKDSGSPKMYVFGGMCGARLDDLWQLDLETMSWSKPETKGTVPLPRSLHTASVIGNKMYIFGGWVPHKGENTETSPHDCEWRCTSSFSYLNLDTTEWTTLVSDSQEDKKNSRPRPRAGHCAVAIGTRLYFWSGRDGYKKALNSQVCCKDLWYLDTEKPPAPSQVQLIKATTNSFHVKWDEVSTVEGYLLQLSTDLPYQAASSDSSAAPNMQGVRMDPHRQGSNNIVPNSINDTINSTKTEQPATKETSMKNKPDFKALTDSNAILYPSLASNASNHNSHVVDMLRKNEGPHTSANVGVLSSCLDVRTVIPETSVSSTVSSTQTMVTQQTIKTESSSTNGAVVKDETSLTTFSTKSEVDETYALPATKISRVETHATATPFSKETPSNPVATVKAGERQWCDVGIFKNNTALVSQFYLLPKGKQSISKVGNADVPDYSLLKKQDLVPGTGYRFRVAAINGCGIGPFSKISEFKTCIPGFPGAPSAVRISKNVEGIHLSWEPPTSPSGNILEYSAYLAIRTAQIQDNPSQLVFMRIYCGLKTSCIVTAGQLANAHIDYTSRPAIVFRISAKNEKGYGPATQVRWLQGNNKKAPLN [HCFC2] | -0.228 | -0.0821
MAGGRCGPQLTALLAAWIAAVAATAGPEEAALPPEQSRVQPMTASNWTLVMEGEWMLKFYAPWCPSCQQTDSEWEAFAKNGEILQISVGKVDVIQEPGLSGRFFVTTLPAFFHAKDGIFRRYRGPGIFEDLQNYILEKKWQSVEPLTGWKSPASLTMSGMAGLFSISGKIWHLHNYFTVTLGIPAWCSYVFFVIATLVFGLFMGLVLVVISECFYVPLPRHLSERSEQNRRSEEAHRAEQLQDAEEEKDDSNEEENKDSLVDDEEEKEDLGDEDEAEEEEEEDNLAAGVDEERSEANDQGPPGEDGVTREEVEPEEAEEGISEQPCPADTEVVEDSLRQRKSQHADKGL [TMX4] | 0.144 | -0.172
MAPDPWFSTYDSTCQIAQEIAEKIQQRNQYERKGEKAPKLTVTIRALLQNLKEKIALLKDLLLRAVSTHQITQLEGDRRQNLLDDLVTRERLLLASFKNEGAEPDLIRSSLMSEEAKRGAPNPWLFEEPEETRGLGFDEIRQQQQKIIQEQDAGLDALSSIISRQKQMGQEIGNELDEQNEIIDDLANLVENTDEKLRNETRRVNMVDRKSASCGMIMVILLLLVAIVVVAVWPTN [STX8] | 0.624 | -0.0243
CEP295 | 0.074 | -0.138
MYRLMSAVTARAAAPGGLASSCGRRGVHQRAGLPPLGHGWVGGLGLGLGLALGVKLAGGLRGAAPAQSPAAPDPEASPLAEPPQEQSLAPWSPQTPAPPCSRCFARAIESSRDLLHRIKDEVGAPGIVVGVSVDGKEVWSEGLGYADVENRVPCKPETVMRIASISKSLTMVALAKLWEAGKLDLDIPVQHYVPEFPEKEYEGEKVSVTTRLLISHLSGIRHYEKDIKKVKEEKAYKALKMMKENVAFEQEKEGKSNEKNDFTKFKTEQENEAKCRNSKPGKKKNDFEQGELYLREKFENSIESLRLFKNDPLFFKPGSQFLYSTFGYTLLAAIVERASGCKYLDYMQKIFHDLDMLTTVQEENEPVIYNRARFYVYNKKKRLVNTPYVDNSYKWAGGGFLSTVGDLLKFGNAMLYGYQVGLFKNSNENLLPGYLKPETMVMMWTPVPNTEMSWDKEGKYAMAWGVVERKQTYGSCRKQRHYASHTGGAVGASSVLLVLPEELDTETINNKVPPRGIIVSIICNMQSVGLNSTALKIALEFDKDRSD [LACTB] | -2.26 | 0.376
